The supplement of paper PMC7877785
± gives the uncertainty stated by the source.

Test: self-splicing fitness, log relative to wild type (ln ratio); higher = more splicing; Tetrahymena group I intron in knt gene, E. coli kanamycin selection, DiMSum; sequences stand for … in CUCUCU…GGAGGGAAAAGUUAUCAGGCAUGCACCUGGUAGCUAGUCUUUAAACCAAUAGAUUGCAUCGGUUUAAAAGGCAAGACCGUCAAAUUGCGGGAAAGGGGUCAACAGCCGUUCAGUACCAAGUCUCAGGGGAAACUUUGAGAUGGCCUUGCAAAGGGUAUGGUAAUAAGCUGACGGACAUGGUCCUAACCACGCAGCCAAGUCCUAAGUCAACAGAUCUUCUGUUGAUAUGGAUGCAGUUCACAGACUAAAUGUCGGUCGGGGAAGAUGUAUUCUUCUCAUAAGAUAUAGUCGGACCUCUCCUUAAUGGGAGCUAGCGGAUGAAGUGAUGCAACACUGGAGCCGCUGGGAACUAAUUUGUAUGCGAAAGUAUAUUGAUUAGUUUUGGAGUACUCGUGGUCG
Summary of the method: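 Library with all eight P1ex-region intron nucleotides randomised, intron inside the knt kanamycin-resistance gene on pET-22b(+), in E. coli BL21(DE3). Cells grew overnight at 37°C or 30°C on LB agar with or without 25 μg/mL kanamycin (plus 100 μg/mL carbenicillin, 50 μM IPTG, 0.2% rhamnose), in six replicate transformations. Pooled colonies were amplicon-sequenced on Illumina HiSeq 2500. DiMSum fitness is the error-weighted combination of wild-type-normalised replicate fold changes, kanamycin versus none.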

Sequence | self-splicing fitness (ln) (30 °C) | self-splicing fitness (ln) (37 °C)
GCUAAGCAAUAUUACGUCAC | -3.38 ± 0.44 | -2.35 ± 0.24
GCUAAGCAAUAUUACGUCCU | -0.847 ± 0.14 | 0.223 ± 0.17
GCUAAGCAAUAUUACGUGAA | -0.92 ± 0.059 | -0.304 ± 0.074
GCUAAGCAAUAUUACGUGCU | -2.4 ± 0.14 | -2.13 ± 0.25
GCUAAGCAAUAUUACGUGGC | -2.87 ± 0.23 | -2.46 ± 0.41
GCUAAGCAAUAUUACGUUAG | -2.7 ± 0.28 | -2.2 ± 0.28
GCUAAGCAAUAUUACGUUCG | -0.791 ± 0.097 | -0.25 ± 0.17
GCUAAGCAAUAUUACGUUGA | -1.97 ± 0.14 | -0.945 ± 0.14
GCUCAGCAAUAUUACGAACU | -0.913 ± 0.068 | -0.48 ± 0.079
GCUCAGCAAUAUUACGAAGA | -0.583 ± 0.12 | -0.863 ± 0.14
GCUCAGCAAUAUUACGAAUG | -1.59 ± 0.12 | -0.636 ± 0.14
GCUCAGCAAUAUUACGAUCG | -1.02 ± 0.1 | 0.77 ± 0.13
GCUCAGCAAUAUUACGCCAC |  | -1.97 ± 0.47
GCUCAGCAAUAUUACGCCGC | -3.66 ± 0.44 | 
GCUCAGCAAUAUUACGCGGU | -3.01 ± 0.15 | -2.22 ± 0.21
GCUCAGCAAUAUUACGCUAU | -1.61 ± 0.11 | -0.658 ± 0.097
GCUCAGCAAUAUUACGCUCC | -1.05 ± 0.15 | 0.283 ± 0.26
GCUCAGCAAUAUUACGGACC | -0.753 ± 0.1 | -0.186 ± 0.13
GCUCAGCAAUAUUACGGACG | -1.11 ± 0.079 | -0.474 ± 0.11
GCUCAGCAAUAUUACGGCCG | -3.86 ± 0.27 | -2.15 ± 0.27
GCUCAGCAAUAUUACGGCUC | -0.525 ± 0.13 | 0.408 ± 0.17
GCUCAGCAAUAUUACGGGUU | -1.29 ± 0.1 | -1.09 ± 0.1
GCUCAGCAAUAUUACGGUGC | -1.82 ± 0.19 | -1.29 ± 0.16
GCUCAGCAAUAUUACGUAAA | -0.495 ± 0.064 | 0.264 ± 0.086
GCUCAGCAAUAUUACGUAUC | -0.849 ± 0.078 | 0.011 ± 0.077
GCUCAGCAAUAUUACGUCAG | -4.87 ± 0.42 | -3.23 ± 0.16

Sequence | self-splicing fitness (ln) (30 °C) | self-splicing fitness (ln) (37 °C)
GCUCAGCAAUAUUACGUGAC | -1.88 ± 0.092 | -1.03 ± 0.11
GCUCAGCAAUAUUACGUGCG | -1.32 ± 0.084 | -0.22 ± 0.1
GCUCAGCAAUAUUACGUGGG | -3.65 ± 0.19 | -1.85 ± 0.16
GCUCAGCAAUAUUACGUGUG | -1.26 ± 0.063 | -0.824 ± 0.074
GCUCAGCAAUAUUACGUUCA | -0.466 ± 0.095 | -0.686 ± 0.12
GCUGAGCAAUAUUACGAACA | -3.44 ± 0.36 | -2.89 ± 0.38
GCUGAGCAAUAUUACGAAUA | -2.55 ± 0.29 | -1.53 ± 0.39
GCUGAGCAAUAUUACGAAUC | -1.15 ± 0.12 | -0.914 ± 0.17
GCUGAGCAAUAUUACGAAUU | -2.46 ± 0.22 | -1.36 ± 0.19
GCUGAGCAAUAUUACGACAU | -2.265 ± 0.018 | -1.08 ± 0.035
GCUGAGCAAUAUUACGACCU | -2.35 ± 0.26 | -1.15 ± 0.33
GCUGAGCAAUAUUACGAUCG |  | -0.335 ± 0.25
GCUGAGCAAUAUUACGCAAA | -4.1 ± 0.39 | -1.55 ± 0.29
GCUGAGCAAUAUUACGCAAU | -2.2 ± 0.26 | -1.9 ± 0.23
GCUGAGCAAUAUUACGCACA | -3.2 ± 0.39 | -3.05 ± 0.4
GCUGAGCAAUAUUACGCACU | -1.78 ± 0.17 | -0.125 ± 0.2
GCUGAGCAAUAUUACGCCGU |  | -0.103 ± 0.24
GCUGAGCAAUAUUACGCUUU | -2.42 ± 0.12 | -2.33 ± 0.18
GCUGAGCAAUAUUACGGAUA | -2.7 ± 0.16 | -1.8 ± 0.14
GCUGAGCAAUAUUACGGGCA | -1.76 ± 0.39 | -2.69 ± 0.36
GCUGAGCAAUAUUACGGGUG | -1.72 ± 0.087 | -1.29 ± 0.11
GCUGAGCAAUAUUACGGUCA | -2.69 ± 0.15 | -2.2 ± 0.14
GCUGAGCAAUAUUACGGUCU | -2.03 ± 0.2 | -1.65 ± 0.21
GCUGAGCAAUAUUACGUCAU | -3.26 ± 0.43 | -0.856 ± 0.3
GCUGAGCAAUAUUACGUGCA | -1.81 ± 0.19 | -0.958 ± 0.19
GCUGAGCAAUAUUACGUUAG | -2.86 ± 0.12 | -1.74 ± 0.17

Sequence | self-splicing fitness (ln) (30 °C) | self-splicing fitness (ln) (37 °C)
GCUUAGCAAUAUUACGAAAG | -1.52 ± 0.13 | -0.485 ± 0.19
GCUUAGCAAUAUUACGAACC | -0.273 ± 0.23 | -0.336 ± 0.27
GCUUAGCAAUAUUACGAACG | -0.817 ± 0.099 | 0.062 ± 0.14
GCUUAGCAAUAUUACGAAGG | -0.605 ± 0.12 | -0.64 ± 0.21
GCUUAGCAAUAUUACGACGG | -1.89 ± 0.17 | -0.935 ± 0.18
GCUUAGCAAUAUUACGAGCU | -2.37 ± 0.19 | -1.89 ± 0.34
GCUUAGCAAUAUUACGAUAA | -2.12 ± 0.13 | -1.69 ± 0.12
GCUUAGCAAUAUUACGAUCU | -1.12 ± 0.12 | 0.155 ± 0.13
GCUUAGCAAUAUUACGCAAA | -2.95 ± 0.27 | -1.51 ± 0.2
GCUUAGCAAUAUUACGCAGG | -1.27 ± 0.19 | -2.97 ± 0.27
GCUUAGCAAUAUUACGCAUG | -2.06 ± 0.27 | -0.0774 ± 0.2
GCUUAGCAAUAUUACGCCUA | -2.32 ± 0.28 | -1.05 ± 0.22
GCUUAGCAAUAUUACGCGCU | -2.33 ± 0.16 | -2.47 ± 0.21
GCUUAGCAAUAUUACGCGGG | -3.43 ± 0.22 | -2.82 ± 0.32
GCUUAGCAAUAUUACGCUUA | -0.849 ± 0.11 | -0.925 ± 0.14
GCUUAGCAAUAUUACGCUUC | -3.27 ± 0.47 | -1.54 ± 0.29
GCUUAGCAAUAUUACGGAAC | -0.644 ± 0.15 | -0.955 ± 0.14
GCUUAGCAAUAUUACGGAGA | -2.02 ± 0.14 | -0.596 ± 0.12
GCUUAGCAAUAUUACGGAGC | -2.97 ± 0.19 | -2.57 ± 0.41
GCUUAGCAAUAUUACGGAGG | -1.54 ± 0.1 | -0.819 ± 0.094
GCUUAGCAAUAUUACGGCAA | -2.6 ± 0.17 | -2.6 ± 0.17
GCUUAGCAAUAUUACGGCCG | -1.9 ± 0.34 | -1.48 ± 0.36
GCUUAGCAAUAUUACGGUAG | -2.53 ± 0.4 | 
GCUUAGCAAUAUUACGGUCU | -0.834 ± 0.083 | -0.0218 ± 0.11
GCUUAGCAAUAUUACGUAAU | -0.0411 ± 0.068 | 0.545 ± 0.083
